Target: Myc-tagged PER2 (transfected in JEG3 cells) (UniProt O54943 1-1257, limits assumed)
Test: coimmunoprecipitation with FLAG antibody from cotransfected JEG3 cells, Western with anti-Myc (FIG. 5A)
Description: (A) JEG3 cells were cotransfected with a series of expression vectors as described. Flag-tagged SIRT1 proteins were immunoprecipitated by FLAG antibody, and abundance of coimmunoprecipitated proteins was determined by western blotting using anti-Myc antibody (top right panel) and anti-SIRT1 antibody (bottom right panel). Left panels show the immunoblotting results of total cell lysates as an input.

Chain of Myc-tagged PER2 (transfected in JEG3 cells) (O54943 whole entry): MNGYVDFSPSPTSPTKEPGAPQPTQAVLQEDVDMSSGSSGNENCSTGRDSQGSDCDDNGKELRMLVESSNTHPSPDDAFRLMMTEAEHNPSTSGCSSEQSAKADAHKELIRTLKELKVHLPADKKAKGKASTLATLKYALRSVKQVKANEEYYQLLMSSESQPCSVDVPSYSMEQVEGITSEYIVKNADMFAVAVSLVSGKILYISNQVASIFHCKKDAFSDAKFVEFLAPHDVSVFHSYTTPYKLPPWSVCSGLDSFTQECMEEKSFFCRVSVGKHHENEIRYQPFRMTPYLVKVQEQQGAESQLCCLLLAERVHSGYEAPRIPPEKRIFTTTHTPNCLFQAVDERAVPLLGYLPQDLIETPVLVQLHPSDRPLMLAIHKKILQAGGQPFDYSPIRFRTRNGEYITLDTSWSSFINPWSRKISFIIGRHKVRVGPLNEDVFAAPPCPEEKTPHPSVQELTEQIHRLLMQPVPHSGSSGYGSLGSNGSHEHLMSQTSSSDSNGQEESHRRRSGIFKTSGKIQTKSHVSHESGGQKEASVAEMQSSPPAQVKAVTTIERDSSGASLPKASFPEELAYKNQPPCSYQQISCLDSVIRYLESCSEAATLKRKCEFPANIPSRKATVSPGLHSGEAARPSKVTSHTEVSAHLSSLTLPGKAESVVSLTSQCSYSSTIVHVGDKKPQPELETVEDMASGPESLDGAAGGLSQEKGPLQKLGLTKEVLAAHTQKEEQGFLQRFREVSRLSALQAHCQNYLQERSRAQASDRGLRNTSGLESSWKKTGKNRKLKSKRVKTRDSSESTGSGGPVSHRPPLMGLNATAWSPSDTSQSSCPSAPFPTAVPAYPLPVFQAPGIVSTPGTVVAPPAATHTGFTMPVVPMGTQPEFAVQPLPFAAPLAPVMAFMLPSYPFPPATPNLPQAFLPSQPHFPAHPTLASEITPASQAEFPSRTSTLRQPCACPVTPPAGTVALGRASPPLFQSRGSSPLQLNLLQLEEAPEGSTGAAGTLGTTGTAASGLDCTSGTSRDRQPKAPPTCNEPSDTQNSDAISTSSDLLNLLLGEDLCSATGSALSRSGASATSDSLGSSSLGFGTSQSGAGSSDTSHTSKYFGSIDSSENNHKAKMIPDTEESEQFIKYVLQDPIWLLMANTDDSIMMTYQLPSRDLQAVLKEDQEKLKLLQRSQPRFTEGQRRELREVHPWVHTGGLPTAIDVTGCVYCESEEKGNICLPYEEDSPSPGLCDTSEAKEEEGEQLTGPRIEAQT

binding result: no binding
B1: Flag-tagged SIRT1 (transfected in JEG3 cells) (enzyme, mouse, UniProt Q923E4 1-737, looked up, not shown: small tags and cut ends)
chain: MADEVALALQAAGSPSAAAAMEAASQPADEPLRKRPRRDGPGLGRSPGEPSAAVAPAAAGCEAASAAAPAALWREAAGAAASAEREAPATAVAGDGDNGSGLRREPRAADDFDDDEGEEEDEAAAAAAAAAIGYRDNLLLTDGLLTNGFHSCESDDDDRTSHASSSDWTPRPRIGPYTFVQQHLMIGTDPRTILKDLLPETIPPPELDDMTLWQIVINILSEPPKRKKRKDINTIEDAVKLLQECKKIIVLTGAGVSVSCGIPDFRSRDGIYARLAVDFPDLPDPQAMFDIEYFRKDPRPFFKFAKEIYPGQFQPSLCHKFIALSDKEGKLLRNYTQNIDTLEQVAGIQRILQCHGSFATASCLICKYKVDCEAVRGDIFNQVVPRCPRCPADEPLAIMKPEIVFFGENLPEQFHRAMKYDKDEVDLLIVIGSSLKVRPVALIPSSIPHEVPQILINREPLPHLHFDVELLGDCDVIINELCHRLGGEYAKLCCNPVKLSEITEKPPRPQKELVHLSELPPTPLHISEDSSSPERTVPQDSSVIATLVDQATNNNVNDLEVSESSCVEEKPQEVQTSRNVENINVENPDFKAVGSSTADKNERTSVAETVRKCWPNRLAKEQISKRLEGNQYLFVPPNRYIFHGAEVYSDSEDDVLSSSSCGSNSDSGTCQSPSLEEPLEDESEIEEFYNGLEDDTERPECAGGSGFGADGGDQEVVNEAIATRQELTDVNYPSDKS
notes: The plasmid list holds a mouse N-terminal FLAG construct and also Flag-hSIRT1/pECE, so the species used in these experiments is not certain; also called Flag-SIRT1

Reference: patent US20110269817A1 (University of California, published 2011)
